In CN115232213A (HEFEI TIANGANG IMMUNOLOGY PHARMACEUTICAL CO LTD, dated 2022):

Target: T1, TROP2蛋白 (TROP2 protein, SEQ ID NO:27) expressed on transduced cells (human, UniProt P09758 27-323)
T1 construct: also called CHO-K1-TROP2细胞; A375-TROP2细胞
T1 sequence: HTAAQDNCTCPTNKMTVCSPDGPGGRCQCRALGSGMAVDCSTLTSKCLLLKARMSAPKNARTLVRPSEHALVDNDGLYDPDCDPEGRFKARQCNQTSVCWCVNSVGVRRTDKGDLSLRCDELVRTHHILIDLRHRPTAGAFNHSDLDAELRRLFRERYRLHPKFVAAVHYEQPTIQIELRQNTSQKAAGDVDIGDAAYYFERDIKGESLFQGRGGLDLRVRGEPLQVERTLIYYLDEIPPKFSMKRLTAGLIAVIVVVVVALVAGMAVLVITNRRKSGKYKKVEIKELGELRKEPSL
Test: flow cytometry on CHO-K1-TROP2 cells, Alexa-647 rat anti-human Fc detection

B1: CD3×TROP2双特异性抗体 (CD3×TROP2 bispecific antibody) (bispecific antibody, human IgG1, kappa, L234A L235A)
chain: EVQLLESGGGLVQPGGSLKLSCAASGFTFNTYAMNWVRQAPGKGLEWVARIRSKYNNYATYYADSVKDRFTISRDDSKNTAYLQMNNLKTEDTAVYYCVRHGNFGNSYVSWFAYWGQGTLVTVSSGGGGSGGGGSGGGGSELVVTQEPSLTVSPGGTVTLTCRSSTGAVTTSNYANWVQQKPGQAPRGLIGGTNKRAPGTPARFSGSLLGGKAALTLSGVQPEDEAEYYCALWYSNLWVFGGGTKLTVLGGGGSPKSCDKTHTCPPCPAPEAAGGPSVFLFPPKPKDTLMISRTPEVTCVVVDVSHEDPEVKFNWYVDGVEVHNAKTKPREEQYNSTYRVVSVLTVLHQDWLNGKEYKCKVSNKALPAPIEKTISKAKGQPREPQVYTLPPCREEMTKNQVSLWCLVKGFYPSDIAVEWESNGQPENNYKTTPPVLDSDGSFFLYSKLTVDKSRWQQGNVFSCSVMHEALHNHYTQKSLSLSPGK
heavy: QVQLQQSGSELKKPGASVKVSCKASGYTFTNYGMNWVKQAPGQGLKWMGWINTYTGEPTYTDDFKGRFAFSLDTSVSTAYLQISSLKADDTAVYFCARGGFGSSYWYFDVWGQGSLVTVSSASTKGPSVFPLAPSSKSTSGGTAALGCLVKDYFPEPVTVSWNSGALTSGVHTFPAVLQSSGLYSLSSVVTVPSSSLGTQTYICNVNHKPSNTKVDKKVEPKSCDKTHTCPPCPAPEAAGGPSVFLFPPKPKDTLMISRTPEVTCVVVDVSHEDPEVKFNWYVDGVEVHNAKTKPREEQYNSTYRVVSVLTVLHQDWLNGKEYKCKVSNKALPAPIEKTISKAKGQPREPQVCTLPPSREEMTKNQVSLSCAVKGFYPSDIAVEWESNGQPENNYKTTPPVLDSDGSFFLVSKLTVDKSRWQQGNVFSCSVMHEALHNHYTQKSLSLSPGK
light: DIQLTQSPSSLSASVGDRVSITCKASQDVSIAVAWYQQKPGKAPKLLIYSASYRYTGVPDRFSGSGSGTDFTLTISSLQPEDFAVYYCQQHYITPLTFGAGTKVEIKRTVAAPSVFIFPPSDEQLKSGTASVVCLLNNFYPREAKVQWKVDNALQSGNSQESVTEQDSKDSTYSLSSTLTLSKADYEKHKVYACEVTHQGLSSPVTKSFNRGEC
notes: Fc carries L234A/L235A; also called CD3×TROP2重组双特异抗体; CD3×TROP2抗体
  binding result: binds
